In this assay the target is SARS-CoV-2 S-protein receptor-binding domain fused to the Fc domain of human IgG1 (SARS-CoV-2) (UniProt P0DTC2). Nature of the assay: SPR.

As usually defined, the Kd is a measure of binding affinity in units of concentration. Higher therefore signals lower affinity.

Substance “soluble monomeric R. macrotis ACE2 (domain or fragment)” yielded an equilibrium dissociation constant (Kd) of 4.6 µM.

(Values after paper PMC7337384.)
